In publication PMC10864275, “Binding kinetics drive G protein subtype selectivity at the β1-adrenergic receptor” (Nature Communications, 2024):
Several values for one entry are separate records, joined by “and”; a condition that tells them apart may be missing. Equal entries are not always repeated.

Legend:
[1] = target: avi-β1AR-W (turkey β1-adrenergic receptor β1AR-MetΔ5, thermostabilised with E130W, N-terminal biotinylated avi-tag) (turkey) (UniProt P07700); experiment: BLI; biotinylated avi-tagged receptor in LMNG immobilised on streptavidin biosensors; 500 μM xamoterol (partial agonist); mini-Gs in solution at 4 μM (column 4); 20 mM TrisHCl pH 8.0, 150 mM NaCl, 15 mM MgCl2, 0.02% LMNG, 0.1% BSA; 25 °C; 1:1 monophasic local partial fit; each row one of n = …
[2] = target: avi-β1AR-E (turkey β1-adrenergic receptor, minimally thermostabilised construct with E130 restored, N-terminal biotinylated avi-tag) (turkey) (UniProt P07700); experiment: as above
[3] = target: avi-β1AR-W (turkey β1-adrenergic receptor β1AR-MetΔ5, thermostabilised with E130W, N-terminal biotinylated avi-tag) (turkey) (UniProt P07700); experiment: BLI; biotinylated avi-tagged receptor in LMNG immobilised on streptavidin biosensors; 500 μM salbutamol (partial agonist); mini-Gs in solution at a single concentration (1 or 2 μM); 20 mM TrisHCl pH 8.0, 150 mM NaCl, 15 mM MgCl2, 0.02% LMNG, 0.1% BSA; 25 °C; 1:1 monophasic local partial fit; one of n = 3 tips
[4] = target: avi-β1AR-E (turkey β1-adrenergic receptor, minimally thermostabilised construct with E130 restored, N-terminal biotinylated avi-tag) (turkey) (UniProt P07700); experiment: as above
[5] = target: avi-β1AR-W (turkey β1-adrenergic receptor β1AR-MetΔ5, thermostabilised with E130W, N-terminal biotinylated avi-tag) (turkey) (UniProt P07700); experiment: BLI; biotinylated avi-tagged receptor in LMNG immobilised on streptavidin biosensors; 500 μM isoprenaline; mini-G in solution at a single concentration (0.125-4 μM); 20 mM TrisHCl pH 8.0, 150 mM NaCl, 15 mM MgCl2, 0.02% LMNG, 0.1% BSA; 25 °C; 1:1 monophasic local partial fit; one of n = 3 tips
[6] = target: avi-β1AR-E (turkey β1-adrenergic receptor, minimally thermostabilised construct with E130 restored, N-terminal biotinylated avi-tag) (turkey) (UniProt P07700); experiment: as above

Chain of avi-β1AR-W (turkey β1-adrenergic receptor β1AR-MetΔ5, thermostabilised with E130W, N-terminal biotinylated avi-tag) (turkey) (P07700 other isoform, or with tags, fused parts or gaps with the stated changes): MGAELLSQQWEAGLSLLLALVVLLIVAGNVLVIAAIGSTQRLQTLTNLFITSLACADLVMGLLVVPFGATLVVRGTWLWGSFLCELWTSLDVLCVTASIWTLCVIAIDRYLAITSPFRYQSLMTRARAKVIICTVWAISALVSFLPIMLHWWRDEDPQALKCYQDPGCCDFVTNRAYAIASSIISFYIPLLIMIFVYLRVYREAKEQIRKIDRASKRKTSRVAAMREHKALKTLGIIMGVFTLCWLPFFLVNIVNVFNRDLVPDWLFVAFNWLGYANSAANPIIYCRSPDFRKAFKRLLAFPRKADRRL
Chain of avi-β1AR-E (turkey β1-adrenergic receptor, minimally thermostabilised construct with E130 restored, N-terminal biotinylated avi-tag) (turkey) (P07700 other isoform, or with tags, fused parts or gaps with the stated changes): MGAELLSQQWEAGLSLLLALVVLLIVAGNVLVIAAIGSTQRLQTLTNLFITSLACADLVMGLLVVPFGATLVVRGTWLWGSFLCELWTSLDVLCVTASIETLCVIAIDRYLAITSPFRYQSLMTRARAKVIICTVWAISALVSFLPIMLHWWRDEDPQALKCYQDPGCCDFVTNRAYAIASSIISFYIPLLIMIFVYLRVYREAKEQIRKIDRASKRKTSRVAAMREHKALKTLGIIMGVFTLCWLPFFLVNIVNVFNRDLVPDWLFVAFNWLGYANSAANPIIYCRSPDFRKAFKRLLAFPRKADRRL

mini-Gs 393 C96A (domain or fragment)
Kd [1]: 3060 nM and 2950 nM and 2900 nM
Kd [2]: 2370 nM and 2320 nM and 2400 nM
Kd [3]: 1440 nM
Kd [4]: 977 nM and 962 nM and 946 nM
Kd [5]: 173 nM and 170 nM and 141 nM
Kd [6]: 42.9 nM and 46.3 nM and 51.2 nM
